Assay results from the nanobody polyreactivity screen of Harvey et al. (2022).

Experiment: yeast display, Sf9 membrane polyspecificity reagent, FACS + sequencing; frameworks hold sequencing errors
Summary of the method: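 Nanobodies came from a synthetic yeast display library in Saccharomyces cerevisiae BJ5465, induced with galactose for 36–48 hours and stained for 1 hour at 4 °C with 10% biotinylated, detergent-solubilized Sf9 membrane reagent. Cells were enriched on streptavidin microbeads and then FACS-sorted, with low and high (top ~1%) gates set on anti-HA fluorescence for expression and streptavidin fluorescence for reagent binding. Each polyreactivity label reflects the gate a clone came from. Genes were amplified by colony PCR, sequenced by MiSeq 2 × 250 and filtered by CDR length.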

| Sequence | polyreactivity (PSR sort gate) |
| --- | --- |
| QVQLVESGGGLVQAGGSLRLSCAASGRTFWYYTMGWYRQAPGKERELVASITYRGGSTYYADSVKGRFTISRDNAKNTVYLQMNSLKPEDTAVYYCNARSGNRYGPRYDYWGQGTQVTVSS | high polyreactivity |
| QVQLVESGGGLVQAGGSLRLSCAASGRTFYANAMGWYRQAPGKERELVAAISTGGDGTYYADSVKGRFTISRDNAKNTVYLQMNSLKPEDTAVYYCAVRHRASGILYDYWGQGTQVTVSS | low polyreactivity |
| QVQLVESGGGLVQAGGSLRLSCAASGRTFYAYAMGWYRQAPGKERELVAAISWRGGDTYYADSVKGRFTISRDNAKNTVELQMNSLKPEDTAVYYCAKDLSRQSGDGEYDYWGQGTQVTVSS | low polyreactivity |
| QVQLVESGGGLVQAGGSLRLSCAASGRTFYAYAMGWYRQAPGKERELVASISDRGGSTYYADSVKGRFTISRDNAKNTVYVQMNSLKPEDTAVYYCAAEYRTQRWFGSWGQGTQVTVSS | high polyreactivity |
| QVQLVESGGGLVQAGGSLRLSCAASGRTFYAYTRGWYRQAPGKERELVAAISSSGTRTYYADSVKGRFTISRDNAKNTVYLQMNSLKPEDTAVYDCAKGTQRFRGLDHGYDYWGQGTQVTVSS | high polyreactivity |
| QVQLVESGGGLVQAGGSLRLSCAASGRTFYDNAMGWYRQAPGKERELVAAISWSGGSTYADSVKGRFTISRDNAKNTVYLQMNSLKPEDTAVYYCNADAWLASGYRYDYWGQGTQVTVSS | low polyreactivity |
| QVQLVESGGGLVQAGGSLRLSCAASGRTFYDNAMGWYRQAPGKERELVAVISTSGARTYYADSVKGRFTISRDNAKNTVYLQMNSLKPEDTAVYYCAARRYKYSWDSGYDLYYWGQGTQVTVSS | high polyreactivity |
| QVQLVESGGGLVQAGGSLRLSCAASGRTFYDNVMGWYRQAPGKERELVAAISSGGSTNYADSVKGRFTISRDNAKNTVYLQMNSLIPEDTAVYYCATNGGGGWAYEYWGQGTQVTVSS | low polyreactivity |
| QVQLVESGGGLVQAGGSLRLSCAASGRTFYDYAMGWYRQAPGKERELVAAISRRAGSTYYADSVKGRFTISRDNAKNTVYLQMNSLKPEDTAVYYCAAAYYRRWWRGHHYAFDYWGQGTQVTVSS | high polyreactivity |
| QVQLVESGGGLVQAGGSLRLSCAASGRTFYFNGMGWYRQAPGKERELVATITASGTITYYADSVKGRFTISRDNAKNTVYLQLNSLKPEDTAVYYCAARQRGYYYSRRYDYWGQGTQVTVTS | high polyreactivity |
| QVQLVESGGGLVQAGGSLRLSCAASGRTFYFNGMGWYRQAPGKERELVATITASGTITYYADSVKGRFTISRDNAKNTVYLQMNSLKPEDTAVYYCAARQRGYYYSRSYDYWGQGTQVTVSS | high polyreactivity |
| QVQLVESGGGLVQAGGSLRLSCAASGRTFYFYTLGWYRPAPGKERELVAAITSGGSTNYADSVKGRFTISRDNAKNTVYLQMNSLIPEDTAVYYCAAKYYRVYGYGLRMYYWGQGTQVTVSS | high polyreactivity |
| QVQLVESGGGLVQAGGSLRLSCAASGRTFYFYVMGWYRQAPGKERELVARISWSGGSTYYADSVKGRFTISRDNAKNTVYLQMNSLKPEDTAVYYCARQYKYPSSGEYDSWGQGTQVSVSS | low polyreactivity |
| QVQLVESGGGLVQAGGSLRLSCAASGRTFYGNVMGWYRQAPGKERELVATISYSAGSTYYADSVKGRFTISRDNAKNTVYFQMNSLKPEDTAVYYCAAAGYVYHWAPRGSRYYYWGQGTQVTVSS | low polyreactivity |
| QVQLVESGGGLVQAGGSLRLSCAASGRTFYGYAMGRYRQAPGKERELVAAISSGGSTYYADSVKGRFTISRDNAKNTVYLQMNSLKPEDTAVYDCAAVKWRRHGGSSEYDYWGQGTQVTVSS | high polyreactivity |
| QVQLVESGGGLVQAGGSLRLSCAASGRTFYGYAMGWYRQAPGKERELVAAISRSGGRTYYADSVKGRFTISRDNAKNTVYLQMNSLKPEDTAVYYCAAYSVYASPDDYWGQGTQVTVSS | high polyreactivity |
| QVQLVESGGGLVQAGGSLRLSCAASGRTFYGYAMGWYRQAPGKERELVAGITSRVGSTYYADSVKGRFTISRDNAKNTVYLQMNSLKPEDTAVYYCAADRYAVRSYHYDYWGQGTQVTVSS | low polyreactivity |
